Reference: PMC9097459

What was measured:
[1] = biological target: WT FlSp NT (N-terminal domain of flagelliform spidroin from Nephila clavipes) (Nephila clavipes); test: SEC; Superdex 75 Increase 10/300 GL, 200 μl of 2 mg/ml protein, 20 mM MES, 154 mM NaCl, 1 mM EDTA, pH 5.5; apparent MW from calibrants; monomer to dimer
[2] = biological target: WT FlSp NT (N-terminal domain of flagelliform spidroin from Nephila clavipes) (Nephila clavipes); test: SEC-MALS; Superdex 75 Increase 10/300 GL, 50 μg loaded, 20 mM MES, 150 mM NaCl, 1 mM EDTA, pH 5.5, room temperature; monomer to dimer
[3] = biological target: FlSp NTTrp (Phe 11 to Trp mutant of FlSp NT) (Nephila clavipes); test: SEC; Superdex 75 Increase 10/300 GL, 200 μl of 2 mg/ml protein, 20 mM MES, 154 mM NaCl, 1 mM EDTA, pH 5.5; apparent MW from calibrants; monomer to dimer
FlSp NT_(E79QE84QE119Q) = test: SEC-MALS; conditions: Superdex 75 increase SEC column
[4] = biological target: FlSp NT* (constitutive monomer mutant, Asp 41 and Lys 65 swapped); test: SEC-MALS; conditions: Superdex 75 increase SEC column
[5] = biological target: FlSp NT_(E79QE84QE119Q) (Nephila clavipes); test: SEC-MALS; Superdex 75 Increase 10/300 GL, 50 μg loaded, 20 mM MES, 150 mM NaCl, 1 mM EDTA, pH 5.5, room temperature; monomer to dimer
[6] = biological target: T1, FlSp NT_(E79QE84QE119QE130Q); test: SEC-MALS; conditions: chain shown with the change, Superdex 75 increase SEC column
T1 chain: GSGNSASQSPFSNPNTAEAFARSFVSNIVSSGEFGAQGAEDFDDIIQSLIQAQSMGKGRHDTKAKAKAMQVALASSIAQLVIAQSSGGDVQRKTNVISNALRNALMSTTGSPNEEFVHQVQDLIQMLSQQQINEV

[7] = pH 5.5 versus pH 8.0, parent: 2.0

**Q.** For “WT FlSp NT (N-terminal domain of flagelliform spidroin from Nephila clavipes) (domain or fragment)”, which apparent MW ratio between dimer (pH 5.5) and monomer (pH 8.0) [1] is on record?
**A.** 1.3

**Q.** What about the stoichiometry N [2] of the same molecule?
**A.** 2

**Q.** Which apparent MW ratio between pH 5.5 and 8.0 [3] does the source give for “FlSp NTTrp (Phe 11 to Trp mutant of FlSp NT) (domain or fragment)” here?
**A.** 1.2

**Q.** What does the source list for “WT FlSp NT (N-terminal domain of flagelliform spidroin from Nephila clavipes) E79Q; E84Q; E119Q”?
**A.** other: molecular mass by SEC-MALS (FlSp NT_(E79QE84QE119Q); pH 5.5, parent: 26.0): 24.4 kDa; other: molecular mass by SEC-MALS (FlSp NT_(E79QE84QE119Q); pH 8.0, parent: 13.1): 14.3 kDa

**Q.** “WT FlSp NT (N-terminal domain of flagelliform spidroin from Nephila clavipes) D41K; K65D” was tested. Which other: molecular mass by SEC-MALS ([4]; pH 5.5, parent: 26.0) did it give?
**A.** 13.4 kDa

**Q.** What about the other: MW ratio between pH 5.5 and pH 8.0 [4, 7] of the same molecule?
**A.** 1

**Q.** What about the other: molecular mass by SEC-MALS ([4]; pH 8.0, parent: 13.1) of the same molecule?
**A.** 14.1 kDa

**Q.** With “FlSp NT_(E79QE84QE119Q) (domain or fragment)” as the molecule, how does the MW ratio between pH 5.5 and 8.0 [5] read?
**A.** 1.7

B1: WT FlSp NT (N-terminal domain of flagelliform spidroin from Nephila clavipes) E79Q; E84Q; E119Q; E130Q (protein)
chain: T1 chain
**Q.** For B1, which other: molecular mass by SEC-MALS ([6]; pH 5.5, parent: 26.0) is on record?
**A.** 20.7 kDa

**Q.** And the other: MW ratio between pH 5.5 and pH 8.0 [6, 7]?
**A.** 1.6

**Q.** And the other: molecular mass by SEC-MALS ([6]; pH 8.0, parent: 13.1)?
**A.** 13.1 kDa
